Data from patent US20160122432A1 (INSERM INSTITUT NATIONAL DE LA SANTE ET DE LA RECHERCHE …, published 2016).

Target: T1, human HER2 receptor (human, UniProt P04626 23-1255)
T1 construct: whole, on cells; Endogenous HER2 on human cancer cell lines; also called Human Epidermal Growth Factor Receptor 2; Neu
Experiment: flow cytometry, biotinylated antibody titrated on SK-BR-3 cells, PE-streptavidin, apparent affinity
From the text: After a washing step, bound antibodies were detected using PE-labeled streptavidin and analyzed by FACS. The inverse of the fluorescence was plotted as a function of the inverse of antibody concentration.

Binder	Kd [nM]
HER2.C7b sdAb (VHH, not shown: small tags and cut ends, biotinylated in vitro (Ez-link micro NHS-PEO4-biotinylation kit) for the affinity determination; sites not stated, also called sdAb HER2.C7b; anti HER2 sdAb HER2.C7b) VHH: QVQLVQSGGGLVQAGGSLRLSCAASGRTFSSYAMAWFRQAPGKEREFVAAISWSGANIYVADSVKGRFTISRDNAKDTVYLQMNSLKPEDTAVYYCAVKLGFAPVEERQYDYWGQGTQVTVSS	51.6
HER2.C7b-Fc (Fc fusion, biotinylated in vitro for the affinity determination; sites not stated, Bivalent for HER2: two HER2.C7b sdAb fused to the constant part of human IgG1; also called Sdab HER2.C7b-Fc; aHER2.C7b-Fc; not shown: hinge, CH1 and CH2 domains of a human IgG1 (so in the source)) QVQLVQSGGGLVQAGGSLRLSCAASGRTFSSYAMAWFRQAPGKEREFVAAISWSGANIYVADSVKGRFTISRDNAKDTVYLQMNSLKPEDTAVYYCAVKLGFAPVEERQYDYWGQGTQVTVSS	2.9
